# Substitutions are numbered along the chain they refer to. In names and notes the source's numbering stands.
# B1: L33R: MGMT polypeptide with mutation L33R (protein)
# chain: MDKDCEMKRTTLDSPLGKLELSGCEQGLHEIKRLGKGTSAADAVEVPAPAAVLGGPEPLMQCTAWLNAYFHQPEAIEEFPVPALHHPVFQQESFTRQVLWKLLKVVKFGEVISYQQLAALAGNPKAARAVGGAMRGNPVPILIPCHRVVCSSGAVGNYSGGLAVKEWLLAHEGHRLGKPGLGGSSGLAGAWLKGAGATSGSPPAGRN
# B2: M134W: MGMT polypeptide with mutation M134W (protein)
# chain: B1 chain with R33L, M134W
# B3: R135G: MGMT polypeptide with mutation R135G (protein)
# chain: B1 chain with R33L, R135G
# B4: R135L: MGMT polypeptide with mutation R135L (protein)
# chain: B1 chain with R33L, R135L
# B5: M134Y: MGMT polypeptide with mutation M134Y (protein)
# chain: B1 chain with R33L, M134Y
# B6: L33W: MGMT polypeptide with mutation L33W (protein)
# chain: B1 chain with R33W
# B7: R135T: MGMT polypeptide with mutation R135T (protein)
# chain: B1 chain with R33L, R135T
# B8: M134V: MGMT polypeptide with mutation M134V (protein)
# chain: B1 chain with R33L, M134V
# B9: L33Y: MGMT polypeptide with mutation L33Y (protein)
# chain: B1 chain with R33Y
# B10: N137D: MGMT polypeptide with mutation N137D (protein)
# chain: B1 chain with R33L, N137D
# B11: M134F: MGMT polypeptide with mutation M134F (protein)
# chain: B1 chain with R33L, M134F
# B12: R135K: MGMT polypeptide with mutation R135K (protein)
# chain: B1 chain with R33L, R135K
# System: U251 human glioblastoma cell line
# Assay: in vitro FM-HCR assay of MGMT activity (mPlum O^6MeG reporter plasmid)
# Type: cell-based
# Settings: 100 μM O^6BG; U251 cells; flow cytometry 24 h after transfection; damaged/undamaged reporter; inversely related to MGMT activity
# Text: The present Example includes, in part, an in vitro fluorescence multiplex host cell reactivation (FM-HCR) assay in which a reporter plasmid with O^6MeG-containing oligonucleotides is used. The oligonucleotides induce transcription errors that lead to expression of fluorescent mPlum protein. Functional MGMT will repair the O^6MeG sites and reduce mPlum expression. This represents a rapid and validated assay system to assess intracellular activity of MGMT. Further description of certain such assays is found in Nagel (2014 PNAS USA 111 (18): E1823-32, which is incorporated herein by reference.
# The present Example uses an in vitro FM-HCR assay in which a reporter plasmid with 0° MeG-containing oligonucleotides is used to assay MGMT activity in cells. The O^6MeG-containing oligonucleotides induce transcription errors that lead to expression of fluorescent mPlum protein. Functional MGMT will repair the O'MeG sites and reduce mPlum expression. This represents a rapid and validated assay system to assess intracellular activity of MGMT. Further description of certain such assays is found in Nagel et al., 2014 PNAS USA 111 (18): E1823-32 and Piett et al., 2021 Nat. Protoc. 16 (9): 4265-4298, each of which is incorporated herein by reference.
# The in vitro FM-HCR assay was performed using the U251 human glioblastoma cell line. The cells were cultured in DMEM with 10% FBS and passaged every three days.
# To express MGMT variants in the cells, plasmids encoding each MGMT variant were designed and generated by either de novo synthesis or cloning into the pTwist EF1 Alpha Puro vector at the HindII-BamHI multiple cloning site. The pTwist EF1 Alpha Puro plasmid vector drives expression of the MGMT transcript from a human EF1-alpha promoter including intron 1 and an SV40 polyadenylation signal. Plasmids encoding the MGMT variants were purified using standard molecular biology techniques from E. coli with low endotoxins. Plasmids encoding wild-type MGMT or O^6BG-resistant MGMT^P140K were also designed and generated for use as controls.
# To perform the in vitro FM-HCR assay, U251 cells were seeded in 12-well plates at a density of 50,000 cells per well in 1 mL culture media. The following day, the media was changed to 1 mL of culture media containing O^6BG (100 μM O^6BG and 0.1% DMSO final) or 0.1% DMSO; and the cells were transfected with 1,000 ng of a plasmid cocktail using Lipofectamine 3000 (ThermoFisher Scientific) at 1.8 μL Lipofectamine 3000 Reagent and 2 μL P3000 reagent in Opti-MEM medium (ThermoFisher Scientific). […] For the “undamaged” condition, the plasmid cocktail replaced the mPlum O^6MeG reporter plasmid with 100 ng of a plasmid expressing mPlum. The plasmid encoding BFP was used as an internal transfection control. For transfections where no MGMT encoding plasmid is used (no pMGMT), 250 ng of additional carrier plasmid was used to maintain a total DNA amount of 1,000 ng in each transfection. Four hours after transfection, the transfection medium was changed.
# All transfected cells were analyzed by flow cytometry at 24-hours after transfection. Data was analyzed as previously described in Nagel et al., 2014 PNAS USA 111 (18): E1823-32 and Piett et al., 2021 Nat. Protoc. 16 (9): 4265-4298. For each condition, normalized reporter expression was determined by taking the product of the mPlum-positive cell count and the mean mPlum fluorescence intensity in mPlum-positive cells and dividing it by the product of the BFP-positive cell count and the mean BFP fluorescence intensity in BFP-positive cells. Next, for each MGMT variant, the percent reporter expression was determined by taking the normalized reporter expression in the “damaged” condition and dividing it by the normalized reporter expression in the “undamaged” condition, and then multiplying by 100 to obtain a percent value. […]
row,Molecule,"Reporter expression (%) mean, O^6BG"
1,B1,58.3%
2,B2,112.3%
3,B3,106.0%
4,B4,82.5%
5,B5,106.3%
6,B6,57.7%
7,B7,101.7%
8,B8,66.0%
9,B9,77.3%
10,B10,80.7%
11,B11,97.0%
12,B12,84.3%

# Same assay, conditions: 0.1% DMSO; U251 cells; flow cytometry 24 h after transfection; damaged/undamaged reporter; inversely related to MGMT activity
row,Molecule,"Reporter expression (%) mean, DMSO"
1,B1,15.0%
2,B2,103.5%
3,B3,20.0%
4,B4,42.8%
5,B5,108.0%
6,B6,14.3%
7,B7,27.3%
8,B8,17.8%
9,B9,17.0%
10,B10,52.3%
11,B11,51.3%
12,B12,13.3%

# Same assay, conditions: DMSO condition; determined from percent reporter expression
row,Molecule,MGMT activity (a.u.) DMSO
1,B1,6.67 a.u.
2,B2,0.97 a.u.
3,B3,5.00 a.u.
4,B4,2.34 a.u.
5,B5,0.93 a.u.
6,B6,6.98 a.u.
7,B7,3.66 a.u.
8,B8,5.63 a.u.
9,B9,5.88 a.u.
10,B10,1.91 a.u.
11,B11,1.95 a.u.
12,B12,7.50 a.u.

# Same assay, conditions: DMSO condition; relative to wild-type MGMT in same condition
row,Molecule,MGMT activity (% of WT) DMSO
1,B1,123.3 % of WT
2,B2,17.9 % of WT
3,B3,92.5 % of WT
4,B4,43.3 % of WT
5,B5,17.1 % of WT
6,B6,129.1 % of WT
7,B7,67.7 % of WT
8,B8,104.2 % of WT
9,B9,108.8 % of WT
10,B10,35.4 % of WT
11,B11,36.0 % of WT
12,B12,138.8 % of WT

# Same assay, conditions: MGMT activity (a.u.) in O^6BG divided by DMSO x 100; higher values indicate resistance
row,Molecule,Relative MGMT activity (%)
1,B1,25.7%
2,B2,92.1%
3,B3,18.9%
4,B4,51.8%
5,B5,101.6%
6,B6,24.9%
7,B7,26.9%
8,B8,26.9%
9,B9,22.0%
10,B10,64.9%
11,B11,52.9%
12,B12,15.8%

# Same assay, conditions: O^6BG condition; determined from percent reporter expression
row,Molecule,MGMT activity (a.u.) O^6BG
1,B1,1.71 a.u.
2,B2,0.89 a.u.
3,B3,0.94 a.u.
4,B4,1.21 a.u.
5,B5,0.94 a.u.
6,B6,1.73 a.u.
7,B7,0.98 a.u.
8,B8,1.52 a.u.
9,B9,1.29 a.u.
10,B10,1.24 a.u.
11,B11,1.03 a.u.
12,B12,1.19 a.u.

# Same assay, conditions: O^6BG condition; relative to wild-type MGMT in same condition
row,Molecule,MGMT activity (% of WT) O^6BG
1,B1,120.0 % of WT
2,B2,62.3 % of WT
3,B3,66.0 % of WT
4,B4,84.8 % of WT
5,B5,65.8 % of WT
6,B6,121.4 % of WT
7,B7,68.9 % of WT
8,B8,106.1 % of WT
9,B9,90.6 % of WT
10,B10,86.8 % of WT
11,B11,72.2 % of WT
12,B12,83.0 % of WT

# Same assay, conditions: lower values indicate resistance to O^6BG
row,Molecule,Ratio percent reporter expression (O^6BG/DMSO)
1,B1,3.89
2,B2,1.09
3,B3,5.30
4,B4,1.93
5,B5,0.98
6,B6,4.02
7,B7,3.72
8,B8,3.72
9,B9,4.54
10,B10,1.54
11,B11,1.89
12,B12,6.33

# Same assay, conditions: percentage difference in relative MGMT activity between variant and wild-type MGMT
row,Molecule,O^6BG resistance relative to WT (%)
1,B1,−2.7%
2,B2,248.6%
3,B3,−28.6%
4,B4,96.1%
5,B5,284.3%
6,B6,−6.0%
7,B7,1.7%
8,B8,1.8%
9,B9,−16.7%
10,B10,145.5%
11,B11,100.2%
12,B12,−40.2%
